Measurements as given in paper PMC7784771.

Columns and labels:
[1] = biological target: TDP-43 RRM1-RRM2 (human, UniProt Q13148 101-265); assay: fluorescence polarization
[2] = biological target: TDP-43 RRM1 (human, UniProt Q13148 101-191); assay: fluorescence polarization
Sequence of TDP-43 RRM1 (Q13148 101-191): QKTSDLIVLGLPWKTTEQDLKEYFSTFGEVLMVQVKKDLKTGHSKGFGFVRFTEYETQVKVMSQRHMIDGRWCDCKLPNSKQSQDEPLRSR

Sequence of TDP-43 RRM1-RRM2 (Q13148 101-265): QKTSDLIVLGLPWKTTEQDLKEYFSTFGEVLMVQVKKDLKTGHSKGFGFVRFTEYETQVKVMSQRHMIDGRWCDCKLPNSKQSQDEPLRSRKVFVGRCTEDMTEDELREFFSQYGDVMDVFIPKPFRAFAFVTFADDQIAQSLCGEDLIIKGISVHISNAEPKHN

B1: (UG)6 RNA (ssRNA)
RNA: UGUGUGUGUGUG
In the case of B1, the Kd [1] is reported as 9.5 ± 1.3 nM and the Kd [2] is reported as 56.9 ± 2.1 nM.
